The sequences below were run on Escherichia coli TOP10 (assay: shrunken log2 fold change of peptide-encoding DNA abundance (4.5 h post-induction vs induction); higher = less antimicrobial activity (less host growth inhibition)). Conditions: time post-induction: 4.5 h; library: site-saturation at positions 5, 18, 19, 20.
RRIRARPPRLPRPRPRPETQPRP was tested, and the “shrunken log2 fold change” value was 1.57.
With RRIRTRPPRLPRPRPRPSAGPRP the “shrunken log2 fold change” value was -0.0241.
In the case of RRIRFRPPRLPRPRPRPATIPRP, the “shrunken log2 fold change” value is reported as -0.506.
In the case of RRIRCRPPRLPRPRPRPLDKPRP, the “shrunken log2 fold change” value is reported as -0.328.
In the case of RRIRPRPPRLPRPRPRPTCWPRP, the “shrunken log2 fold change” value is reported as 0.349.
With RRIRIRPPRLPRPRPRPFGVPRP the “shrunken log2 fold change” value was -0.0635.
In the case of RRIRGRPPRLPRPRPRPKPEPRP, the “shrunken log2 fold change” value is reported as 0.819.
With RRIRKRPPRLPRPRPRPNATPRP the “shrunken log2 fold change” value was 1.16.
For RRIRNRPPRLPRPRPRPRPQPRP, the “shrunken log2 fold change” value was 0.339.
RRIRQRPPRLPRPRPRPIDCPRP was tested, and the “shrunken log2 fold change” value was 0.0167.
With RRIRNRPPRLPRPRPRPWYAPRP the “shrunken log2 fold change” value was -0.533.
In the case of RRIRMRPPRLPRPRPRPAHRPRP, the “shrunken log2 fold change” value is reported as 0.444.
RRIRSRPPRLPRPRPRPKFQPRP was tested, and the “shrunken log2 fold change” value was 0.146.
RRIRRRPPRLPRPRPRPTWQPRP was tested, and the “shrunken log2 fold change” value was 0.459.
In the case of RRIRHRPPRLPRPRPRPCDKPRP, the “shrunken log2 fold change” value is reported as -0.113.
With RRIRFRPPRLPRPRPRPRHAPRP the “shrunken log2 fold change” value was 0.389.
With RRIRKRPPRLPRPRPRPGPTPRP the “shrunken log2 fold change” value was 0.65.
With RRIRQRPPRLPRPRPRPFAQPRP the “shrunken log2 fold change” value was -0.0906.
RRIRIRPPRLPRPRPRPFYQPRP was tested, and the “shrunken log2 fold change” value was 0.234.
In the case of RRIRGRPPRLPRPRPRPYNMPRP, the “shrunken log2 fold change” value is reported as -0.531.
In the case of RRIRPRPPRLPRPRPRPIMLPRP, the “shrunken log2 fold change” value is reported as -0.114.
In the case of RRIRCRPPRLPRPRPRPIINPRP, the “shrunken log2 fold change” value is reported as -0.325.
For RRIRNRPPRLPRPRPRPRCAPRP, the “shrunken log2 fold change” value was 0.708.
For RRIRVRPPRLPRPRPRPSNWPRP, the “shrunken log2 fold change” value was -0.331.
RRIRERPPRLPRPRPRPQLWPRP was tested, and the “shrunken log2 fold change” value was 0.116.
For RRIRMRPPRLPRPRPRPTNFPRP, the “shrunken log2 fold change” value was -0.0912.
RRIRRRPPRLPRPRPRPDTPPRP was tested, and the “shrunken log2 fold change” value was 0.342.
RRIRCRPPRLPRPRPRPQDEPRP was tested, and the “shrunken log2 fold change” value was -0.0478.
With RRIRKRPPRLPRPRPRPACWPRP the “shrunken log2 fold change” value was 0.96.
For RRIRIRPPRLPRPRPRPTMTPRP, the “shrunken log2 fold change” value was -0.0629.
For RRIRNRPPRLPRPRPRPYYPPRP, the “shrunken log2 fold change” value was -0.141.
With RRIRMRPPRLPRPRPRPWHAPRP the “shrunken log2 fold change” value was 0.098.
For RRIRFRPPRLPRPRPRPEGAPRP, the “shrunken log2 fold change” value was 1.05.
For RRIRMRPPRLPRPRPRPYDWPRP, the “shrunken log2 fold change” value was -0.133.
In the case of RRIRARPPRLPRPRPRPAMTPRP, the “shrunken log2 fold change” value is reported as 0.356.
For RRIRMRPPRLPRPRPRPYMSPRP, the “shrunken log2 fold change” value was -0.00176.
RRIRYRPPRLPRPRPRPETYPRP was tested, and the “shrunken log2 fold change” value was -0.372.
With RRIRDRPPRLPRPRPRPDHNPRP the “shrunken log2 fold change” value was 0.0311.
RRIRDRPPRLPRPRPRPLCPPRP was tested, and the “shrunken log2 fold change” value was -0.00491.
In the case of RRIRVRPPRLPRPRPRPWCTPRP, the “shrunken log2 fold change” value is reported as 0.0234.
RRIRFRPPRLPRPRPRPCVIPRP was tested, and the “shrunken log2 fold change” value was 0.0397.
RRIRWRPPRLPRPRPRPNTEPRP was tested, and the “shrunken log2 fold change” value was -0.324.
In the case of RRIRGRPPRLPRPRPRPSIQPRP, the “shrunken log2 fold change” value is reported as 0.176.
In the case of RRIRCRPPRLPRPRPRPCYHPRP, the “shrunken log2 fold change” value is reported as -0.79.
With RRIRDRPPRLPRPRPRPNTRPRP the “shrunken log2 fold change” value was -0.238.
RRIRSRPPRLPRPRPRPHNKPRP was tested, and the “shrunken log2 fold change” value was -0.71.
For RRIRNRPPRLPRPRPRPQCCPRP, the “shrunken log2 fold change” value was -0.0308.
For RRIRKRPPRLPRPRPRPDWFPRP, the “shrunken log2 fold change” value was 0.178.
With RRIRIRPPRLPRPRPRPGWWPRP the “shrunken log2 fold change” value was 0.405.
RRIRVRPPRLPRPRPRPCLGPRP was tested, and the “shrunken log2 fold change” value was -0.069.
With RRIRNRPPRLPRPRPRPQYPPRP the “shrunken log2 fold change” value was -0.571.
With RRIRLRPPRLPRPRPRPDQPPRP the “shrunken log2 fold change” value was -0.129.
RRIRTRPPRLPRPRPRPYPKPRP was tested, and the “shrunken log2 fold change” value was -0.0976.
RRIRPRPPRLPRPRPRPMQRPRP was tested, and the “shrunken log2 fold change” value was 0.195.
In the case of RRIRRRPPRLPRPRPRPCFNPRP, the “shrunken log2 fold change” value is reported as -0.271.
For RRIRRRPPRLPRPRPRPGATPRP, the “shrunken log2 fold change” value was 0.74.
RRIRSRPPRLPRPRPRPPIAPRP was tested, and the “shrunken log2 fold change” value was 2.36.
In the case of RRIRDRPPRLPRPRPRPTKAPRP, the “shrunken log2 fold change” value is reported as 0.000414.
In the case of RRIRNRPPRLPRPRPRPAYYPRP, the “shrunken log2 fold change” value is reported as -0.0433.
With RRIRCRPPRLPRPRPRPDWDPRP the “shrunken log2 fold change” value was -0.149.

— the supplement of paper PMC9112550, “Optimization of the antimicrobial peptide Bac7 by deep mutational scanning” (BMC Biology, 2022)
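Also: peptides expressed intracellularly from a pBAD plasmid library in pooled LB shake-flask culture, induced with 0.3% L-arabinose, DNA abundance read by NGS, three biological replicates, DESeq2 with apeglm shrinkage.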
